Assay [1] concerns the target T1, Rat protein geranylgeranyl transferase type I (GGTase-I) (rat, UniProt Q04631 1-377; P53610 1-377). Description: X-ray crystal structure, ternary complex with 3'azaGGPP. The method, then:
Rat GGTase-I was expressed and purified as previously described herein (see also SAtrickland et al., 1999). […] GGTase-I product co-crystals were first transferred stepwise from their mother liquor (1.3 M NH₄SO₄, 175 mM Na₃-citrate, 100 mM MES pH 6.3, and 20 mM DTT) to cyro-solvent (30% (w:v) sucrose, 900 mM Na₃-citrate, 100 mM MES pH 6.3, 10 mM TCEP, and 1 μM ZnCl₂) supplemented with 0.2 mM 3′azaGGPP and 0.2 mM of the appropriate Ca₁a₂X peptide (Sigma-Genosys, >95% purity). All crystals were soaked for a week to allow for ternary complex formation and flash-cooled in liquid nitrogen.
(§1) Diffraction data were collected at 100 K with an R-Axis IV image plate system (Molecular Structure Corp., The Woodlands, Tex., United States of America) mounted on a Rigaku RU-H3R rotating anode generator with double mirror optics (Molecular Structure Corp.). Diffraction data were also collected at the BioCARS and SER-CAT beamlines at the Advanced Photon Source, Argonne National Labs and at the X25 beamline at the National Synchrotron Light Source, Brookhaven National Labs (BNLNSLS).

The target of assay [2] is T1, Rat protein geranylgeranyl transferase …. Briefly: X-ray crystal structure, product Complex 3. The method, then:
(§2) GGTase-I crystals were grown at 17° C. in hanging drops using equal volumes of protein and reservoir solution (1.3 M NH₄SO₄, 175 mM Na₃ citrate pH 6.5, 20 mM DTT and 100 mM MES, pH 6.3). Micro-seeds were added after equilibration to control nucleation. Seeding solution was produced by crushing GGTase-I crystals in stabilizing solution (1.5 M NH₄SO₄, 175 mM Na₃ citrate pH 6.5, 5 mM ZnCl₂, 20 mM DTT and 100 mM MES, pH 6.3). […] For data collection crystals were transferred stepwise into cryosolvent (30% (w:v) sucrose, 1.8 M NH₄SO₄, 5 mM ZnCl₂, 10 mM TCEP, and 100 mM MES, pH 6.3) before flash-freezing in liquid nitrogen. Derivative crystals were soaked 18 hours in cryosolvent containing 1 mM Di-m-iodobis (ethylenediamine) diplatinum (II) nitrate (PIP) and no TCEP.

Assay [3] addresses T2, Rat protein farnesyltransferase (rFTase) (rat, UniProt Q04631 1-377; Q02293 1-437). Briefly: X-ray crystal structure, ternary complex with FPT-II.
Description: (§3) The FTase:FPTII: Ca₁a₂X complexes were transferred to cryoprotection solutions and flash-cooled in liquid nitrogen.
as §1
(§4) The structures were determined by rigid body refinement using either rat FTase (Brookhaven Protein Data Bank code 1 D8D) or human FTase (Brookhaven Protein Data Bank code 1JCQ) as the initial model with ligands removed. […] After rigid body refinement, FPT-II and the Ca₁a₂X peptides were fit into σA weighted Fₒ-Fc maps and the complexes refined against all data with |F|≧0 by iterative cycles of simulated annealing, minimization, individual B-factor refinement, and model building. Refinements were carried out using CNS v1.0 (Brünger et al., 1998) and models built using O (Jones et al., 1991).

Assay [4] addresses Human protein farnesyltransferase (hFTase) (human, UniProt P49354 1-379; P49356 1-437). Described as above.
Description: as §3, §1, §4

Assay [5] addresses T1, Rat protein geranylgeranyl transferase …. Briefly: X-ray crystal structure, ternary Complex 2 with 3'AzaGGPP. The procedure:
as §2

Assay [6] addresses T2, Rat protein farnesyltransferase (rFTase). Description: co-crystal of the product complex.
The target is the same in assay [7]. Description: X-ray crystal structure, FTase complexed with FPT-II and peptide (FIG. 16).
Description: as §3, §1, §4

Ends that are not written are not given here. * marks the point of attachment. Geranylgeranyl = CC(C)=CCC/C(C)=C/CC/C(C)=C/CC/C(C)=C/C*; Farnesyl = CC(C)=CCC/C(C)=C/CC/C(C)=C/C*

KKSKTKCKVL (Synthetic, Sigma-Genosys, >95% purity) [RhoB peptide KKSKTKCKVL (SEQ ID NO: 12)]: the binding result in assay [1] is on record as “binds”.

B1: heterotrimeric G protein γ2 subunit peptide FREKKFFCAIL (SEQ ID NO: 13) (peptide)
peptide: FREKKFFCAIL
notes: Synthetic, Sigma-Genosys, >95% purity; also called y2
On to B1, for which, in assay [1], the binding result is “binds”.

B2: geranylgeranylated-KKKSKTKCVIL product (SEQ ID NO: 1) (peptide)
peptide: KKKSKTKC(Geranylgeranyl)VIL
notes: also called prenyl-peptide product; prenylated product
For B2, the binding result in assay [2] is recorded as “binds”.

B3: TC21 peptide KKSKTKCVIF (SEQ ID NO: 9) (peptide)
peptide: KKSKTKCVIF
notes: Synthetic, Sigma-Genosys, >95% purity; also called TC21 (CVIF)
Consider B3, for which the binding result in assay [1] and in assay [3] was “binds” each time.

B4: Rap2a peptide DDPTASACNIQ (SEQ ID NO: 10) (peptide)
peptide: DDPTASACNIQ
notes: Synthetic, Sigma-Genosys, >95% purity; also called Rap2a (CNIQ)
Take B4: the binding result in assay [4] is “binds”.

B5: Ca1a2X peptide KKKSKTKCVIL (SEQ ID NO: 1) (peptide)
peptide: KKKSKTKCVIL
notes: Synthetic, Sigma-Genosys, >95% purity; also called Rap2b chimera peptide; CVIL peptide
As for B5, the binding result in assay [5] was “binds”.

B6: K-Ras4B peptide KKKSKTKCVIM (SEQ ID NO: 8) (peptide)
peptide: KKKSKTKCVIM
notes: Synthetic, Sigma-Genosys, >95% purity; also called K-Ras4B (CVIM)
Regarding B6, the binding result in assay [1] is recorded as “binds”.

B7: Cdc42 splice isoform 2 peptide RRCVLL (SEQ ID NO: 14) (peptide)
peptide: RRCVLL
notes: Synthetic, Sigma-Genosys, >95% purity; also called Cdc42-II
In the case of B7, the binding result in assay [1] is given as “binds”. On to GCINCCKVL (Synthetic, Sigma-Genosys, >95% purity) [RhoB peptide GCINCCKVL (SEQ ID NO: 11)], for which the binding result in assay [1] is given as “binds”.

B8: farnesylated-KKKSKTKCVIM product (SEQ ID NO: 8) (peptide)
peptide: KKKSKTKC(Farnesyl)VIM
notes: Product co-crystal with FTase, used as starting material for the TC21 soak; also called farnesylated product
B8: the binding result in assay [6] was “binds”.

B9: H-Ras peptide GCVLS (SEQ ID NO: 6) (peptide)
peptide: GCVLS
notes: Synthetic, Sigma-Genosys, >95% purity; also called H-Ras (CVLS)
Regarding B9, in assay [7], the binding result is reported as “binds”.
